Experimental data as given in patent US20240218030A1 (CELLEMEDY, published 2024).

Target: T1, human transferrin receptor-Fc tag standard (human, UniProt P02786 89-760, limits assumed)
T1 construct: Reagent coated on the ELISA plate at 2 ug/ml; also called hTfR; hTER; not shown: Fc tag
Assay: ELISA on plate-coated human TfR-Fc with anti-His detection; Kd calculated from an expected saturation point, since the curve was not saturated at 10000 nM
Procedure: Then, it was washed 3 times with 200 μl of PBST (PBS+Tween0.05%). An antibody (mouse anti-His tag antibody, Hisprobe) that specifically binds to the hexa-His tag was diluted 1/1000 in PBST, and the diluted solution was treated by 100 μl at room temperature for 1 hour.
Then, it was washed 3 times with 200 μl of PBST (PBS+Tween0.05%). TMB solution expressing coloration by reacting with HRP was treated by 100 μl at room temperature for 15 minutes. After 50 μl of 1M H₂SO₄ solution was treated, optical density was measured with TECAN at a wavelength of 450 nm. This was calculated using the Langmuir equation (Table 4, FIGS. 4 to 6).
FIG. 7 illustrates results of evaluation/comparison of the binding force of huHF_mutant1-dual and huHF_mutant2-dual to hTfR.

T1 sequence (P02786 89-760 limits assumed): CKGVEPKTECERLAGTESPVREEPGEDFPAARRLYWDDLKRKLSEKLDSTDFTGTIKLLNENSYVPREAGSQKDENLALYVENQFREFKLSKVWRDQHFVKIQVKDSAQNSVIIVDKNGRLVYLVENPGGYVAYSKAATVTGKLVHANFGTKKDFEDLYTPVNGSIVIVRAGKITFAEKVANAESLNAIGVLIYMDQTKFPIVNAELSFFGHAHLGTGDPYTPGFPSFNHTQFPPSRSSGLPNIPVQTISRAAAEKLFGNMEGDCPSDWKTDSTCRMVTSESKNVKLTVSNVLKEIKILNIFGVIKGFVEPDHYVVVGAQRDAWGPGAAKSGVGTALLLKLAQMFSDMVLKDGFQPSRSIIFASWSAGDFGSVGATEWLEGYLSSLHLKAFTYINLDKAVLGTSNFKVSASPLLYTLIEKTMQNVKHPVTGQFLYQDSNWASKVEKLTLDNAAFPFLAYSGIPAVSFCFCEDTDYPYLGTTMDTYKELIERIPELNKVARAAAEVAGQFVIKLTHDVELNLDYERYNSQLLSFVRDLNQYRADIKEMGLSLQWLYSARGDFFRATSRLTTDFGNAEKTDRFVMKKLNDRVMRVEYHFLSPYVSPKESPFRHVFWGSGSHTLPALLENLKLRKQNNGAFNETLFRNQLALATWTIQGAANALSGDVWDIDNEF

Kd: ~4.4 µM
B1: huHF_Mutant2-dual (designed binder)
chain: MTTASTSQVRQNYHAASEAAINAQINLELYASYVYLSMSYYFDRDDVALKNFAKYFLHQSHEEREHAEKLMKLQNQRGGRIALADIQKPDCDDGGSYGSLYAFDIWESGLNAMECALHLEKNVNQSLLALHALATAKNDPHLCDFIETHYLNEQVKAIKELGDHVTNLRKMGAPESGLAEYLFDKHTLGDSDNESMPSFITLASLSTWEGYFDF
notes: Self-assembled ferritin nanoparticle of 24 monomers
